Test results from the supplement of paper PMC11908140.

B1: library; numbered along this chain (parent)
chain: MRKPRAAVGSGHRKQAASQEGRQKHAKNNSQAKPSACDGLARQPEEVVLQASVSSYHLFRDVAEVTAFRGSLLSWYDQEKRDLPWRRRAEDEMDLDRRAYAVWVSEVMLQQTQVATVINYYTGWMQKWPTLQDLASASLEEVNQLWAGLGYYSRGRRLQEGARKVVEELGGHMPRTAETLQQLLPGVGRYTAGAIASIAFGQATGVVDGNVARVLCRVRAIGADPSSTLVSQQLWGLAQQLVDPARPGDFNQAAMELGATVCTPQRPLCSQCPVESLCRARQRVEQEQLLASGSLSGSPDVEECAPNTGQCHLCLPPSEPWDQTLGVVNFPRKASRKPPREESSATCVLEQPGALGAQILLVQRPNSGLLAGLWEFPSVTWEPSEQLQRKALLQELQRWAGPLPATHLRHLGEVVHTFSHIKLTYQVYGLALEGQTPVTTVPPGARWLTQEEFHTAAVSTAMKKVFRVYQGQQPGTCMGSKRSQVSSPCSRKKPRMGQQVLDNFFRSHISTDAHSLNSAAQ

Variants of: B1
Assay: 8OG:A repair function score (normalized; synonymous = 0, nonsense = -1) (normalized log-likelihood score); higher = more repair activity (WT-like)
Conditions: with 8OG:A DNA repair reporter (GFP) in HEK-293 MUTYH KO cells
Procedure, shortened: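 With 10 pg/ml doxycycline, MUTYH knockout HEK-293 cells carrying lentiviral MUTYH cDNA NNN codon-scan libraries were co-transfected with mCherry and an 8OG:A GFP repair reporter. Viable mCherry+ cells were sorted into GFP+ (repair) and GFP− bins at 72 h, three replicates per tile, and tile amplicons were sequenced. Per-tile Rosace fitness scores were then normalized into a repair function score anchored on synonymous and nonsense distributions. Medians were fixed at 0 for synonymous and -1 for nonsense, excluding variants under 300 counts per million at the start.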

Row | Variant | 8OG:A repair function score
1 | Q498S | 0.0168
2 | T228P | 0.212
3 | A245R | -0.124
4 | V414S | -0.294
5 | E141M | -0.111
6 | R446E | -0.312
7 | V427M | -0.599
8 | W146E | -1.03
9 | V415S | 0.0289
10 | A203T | 0.03
11 | D96H | -0.132
12 | Q132S | -0.109
13 | Q397F | 0.0272
14 | D512S | -0.0201
15 | T130L | -0.336
16 | A147W | -0.902
17 | W321D | -0.53
18 | E92L | -0.011
19 | H454F | -0.268
20 | L72W | -0.994
21 | D300G | -0.148
22 | V211W | -0.594
23 | L387V | -0.0288
24 | L387T | 0.0729

Row | Variant | 8OG:A repair function score
25 | G155A | 0.037
26 | I221A | -0.993
27 | A253D | -1.03
28 | Q323I | -0.141
29 | C314L | -0.616
30 | V230S | -0.422
31 | V441D | -0.144
32 | A212M | -0.344
33 | W85Y | -0.864
34 | G368T | -0.332
35 | R2F | 0.0866
36 | C216A | -0.252
37 | L169I | -0.337
38 | E79P | -0.189
39 | D243Y | -0.667
40 | Y428C | -0.883
41 | R495K | 0.00711
42 | T436S | -0.173
43 | P402M | 0.138
44 | E303A | -0.0517
45 | A162Y | -1.22
46 | S510G | -0.0202
47 | R495S | 0.013
48 | S515G | -0.000426

Row | Variant | 8OG:A repair function score
49 | T308C | -0.00889
50 | L501D | 0.00991
51 | A115R | 0.092
52 | S507Q | -0.0688
53 | Q202L | -0.163
54 | M173W | -0.276
55 | H172V | 0.0577
56 | G353H | -0.144
57 | V53D | 0.00694
58 | V414Y | -0.314
59 | W321S | -0.257
60 | A405P | 0.125
61 | Q182K | 0.129
62 | P402I | -0.0565
63 | Q498V | 0.00262
64 | A520T | -0.000144
65 | L408T | -0.417
66 | L229W | -0.0377
67 | G193C | 0.0546
68 | A445T | -0.288
69 | L49A | 0.0219
70 | E303S | -0.0938
71 | P316E | 0.0013
72 | S55I | -0.0166

Row | Variant | 8OG:A repair function score
73 | H416E | -0.909
74 | Q181G | -0.165
75 | Q240D | -0.979
76 | R163I | -0.115
77 | P442L | -0.12
78 | A199H | -0.874
79 | W124K | -0.931
80 | Q499D | -0.0217
81 | R279D | -0.718
82 | R86Q | -2.68
83 | D208F | -1.04
84 | G123R | 0.0952
85 | G258V | -1.2
86 | N366H | 0.288
87 | S384P | -0.218
88 | T324L | -0.000813
89 | E395C | -0.217
90 | E287L | -0.0229
91 | W235K | -0.51
92 | A431F | -0.237
93 | L295T | -0.00105
94 | R266L | -0.152
95 | Y425M | 0.236
96 | S367P | -0.0154

Row | Variant | 8OG:A repair function score
97 | R446D | -0.442
98 | V301E | -0.439
99 | G401W | -0.421
100 | G150A | -1.42
101 | L369G | -0.359
102 | L169D | -0.386
103 | T112F | -1.17
104 | T116D | -1.03
105 | G309S | -0.0582
106 | R281K | -0.09
107 | S515D | -0.0425
108 | D249Q | -0.428
109 | V207T | -0.785
110 | Q473I | -0.0484
111 | W103V | -0.986
112 | D502F | -0.0425
113 | L234V | -0.29
114 | L373S | -0.647
115 | P316C | -0.0546
116 | T406S | -0.184
117 | A357I | -0.0394
118 | V230M | -0.387
119 | L215H | -0.901
120 | A162C | -0.175

Row | Variant | 8OG:A repair function score
121 | T324G | -0.0488
122 | L40M | 0.227
123 | S486W | 0.0129
124 | D96Y | -0.308
125 | T511H | 0.0209
126 | Q288Y | -0.0255
127 | D82C | -0.0489
128 | E302V | -0.232
129 | A199G | -0.183
130 | T324S | 0.0429
131 | P264R | -0.0983
132 | L180D | -1.1
133 | C262A | -1.38
134 | A67T | 0.00198
135 | D208A | -1.04
136 | S105A | -0.0215
137 | Q239Y | -0.309
138 | A177I | -0.142
139 | P494L | -0.00201
140 | S486Y | 0.00541
141 | E452R | -0.0533
142 | A445E | -0.567
143 | E106Q | -1.51
144 | R88D | -0.0653

Row | Variant | 8OG:A repair function score
145 | Q499K | -0.00715
146 | E395D | -0.291
147 | Q271G | -0.0498
148 | L361T | -0.222
149 | A519G | -0.00167
150 | Q521I | -0.0216
151 | N503R | -0.0109
152 | E140T | -0.149
153 | V284N | -0.0944
154 | A254L | 0.114
155 | L408S | -0.483
156 | L158R | -1.09
157 | Q388W | -0.0946
158 | E92A | -0.0671
159 | V438F | -0.193
160 | L49H | 0.0564
161 | V107T | -0.0133
162 | L268N | -0.0234
163 | Q182V | -0.022
164 | L369S | -0.169
165 | V348A | -0.589
166 | P44F | -0.202
167 | V48Q | 0.0497
